In US20210355238A1:

Experiments:
[1] = target: Antigen B (monomeric lower molecular weight protein); assay: Biacore SPR at 25°C; mAb captured on anti-human Fc (236.1±0.8 RU), Antigen B injected at 90 nM
[2] = target: Antigen A (multivalent high molecular weight protein); assay: Biacore SPR at 25°C; mAb captured on anti-human Fc (236.5±1.0 RU), Antigen A injected at 100 nM

Antigen B bound - 90 nM (RU) [1]: 7 RU
Antigen A bound - 100 nM (RU) [2]: 18 RU
Substance: isotype control antibody (CI)
